± gives the half width of the 95% confidence interval.
Legend:
[1] = folding stability dG unfold from trypsin proteolysis; higher = more stable
Summary of the method: (§1)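 Mini-proteins designed to be under 80 residues and free of cysteine were carried in a PA-tagged cDNA display construct and digested with trypsin and with chymotrypsin. Each protease was applied at 11 threefold-diluted concentrations, alongside a no-protease condition, before sequencing. K50 came from Bayesian fitting of the sequencing counts, and unfolding free energy was obtained by comparing it with a sequence-predicted unfolded-state K50 and a shared folded-state K50, for each protease separately or for both together. Designs were retained only if their AlphaFold2 dimer inter-PAE exceeded 15.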

[2] = folding stability dG unfold from chymotrypsin proteolysis; higher = more stable
Summary of the method: as §1

[3] = folding stability dG unfold (combined trypsin and chymotrypsin); higher = more stable
Summary of the method: as §1

Sequence | folding stability dG unfold [1] | folding stability dG unfold [2] | folding stability dG unfold [3]
SAGGMTLTIEIVVPPGTTVEELKKALEELGYEITSIEVEYDPETDLVTVRMEIRLPPPPPVSEEEKKSAGGS [r16_584_TrROS_Hall] | 7.81 ± 0.318 kJ/mol | 13.5 ± 0.669 kJ/mol | 11.4 ± 0.711 kJ/mol
SAGGMTLTLIVPSKEEAERLAEALRALLPPGAKLEITVEEVTLKEDLPPDLPEVKEKKYLVVTIRLDSAGGS [r16_795_TrROS_Hall] | 12.7 ± 0.586 kJ/mol | 14.6 ± 0.335 kJ/mol | 14 ± 0.418 kJ/mol
SAGGMTLTLVLEANPPEAVEVAVARLLRELGFPDELKIEIDPVGDDKGRIIYPVTIEVNVPELAEKASAGGS [r8_85_TrMRF] | 9.17 ± 0.176 kJ/mol | 11 ± 0.151 kJ/mol | 10.1 ± 0.544 kJ/mol
SAGGMTLTVDEIKELLKKGYSLEEIKEALKKAGFEIVEIKKIEKKDGKIYIEIEFKKNKKIIKIEIPSAGGS [r8_179_TrROS_Hall] | 14.1 ± 1 kJ/mol | 18.2 ± 0.753 kJ/mol | 17.6 ± 1.46 kJ/mol
SAGGMTLVLRFPSKEEALEALRELAEALGLEVEITKIEIEEREVEDPETGEKRREVLITIEVKVKPPSAGGS [r16_587_TrROS_Hall] | 16 ± 1.55 kJ/mol | 19.3 ± 0.586 kJ/mol | 18.7 ± 1.21 kJ/mol
SAGGMTPEEARKLAEELAKKLEEEGKEVEVKVEVNKDGKVVKIEIKPEGEKVTITLPDGEKVLELELPSAGG [r13_693_TrROS_Hall] | 4.58 ± 0.201 kJ/mol | 4.2 ± 0.372 kJ/mol | 4.33 ± 1.05 kJ/mol
SAGGMTPEELEAAARAAAAALRAELEAGDPDVEVDLEVDPEKGTATFTVTDRATGRPRTLTVPFAELASAGG [r13_354_JUSTAS] | 3.64 ± 0.31 kJ/mol | 8.1 ± 0.226 kJ/mol | 6.41 ± 0.305 kJ/mol
SAGGMTTLTLETTDEGKPLGLEEILARLREALPGVPVEVLSADPAKGVVTIAVAPEAVPEIERAVAASAGGS [r8_235_JUSTAS] | 7.08 ± 0.159 kJ/mol | 8.78 ± 0.092 kJ/mol | 8.19 ± 0.31 kJ/mol
SAGGMTTTTTTYTIQLPNGETLTITITTTTLPGGITVTIPIGGTSPDQIAIAKELAEKLAAEIKEAASAGGS [r8_416_JUSTAS] | 12.1 ± 0.402 kJ/mol | 16 ± 0.418 kJ/mol | 14.9 ± 0.46 kJ/mol
SAGGMTTTTVEVKRLPNGSIERTLKTTVPLPNGDLVVTTTKSIVYREDGKVVKEEVLETETTLLPATSAGGS [r8_36_JUSTAS] | 10.8 ± 0.343 kJ/mol | 12.2 ± 0.322 kJ/mol | 11.6 ± 0.31 kJ/mol
SAGGMTVTLEIEIPAEELSEEELKALLEELFPNAEVTVERLPDGTLRITIRVEVPPAPPEVVVLPDKSAGGS [r16_535_TrROS_Hall] | 11 ± 0.343 kJ/mol | 12.4 ± 0.502 kJ/mol | 12.1 ± 0.502 kJ/mol
SAGGMTVTVKVKPDEYVIVEIENPVLDSTLTYVVPFNSPMTVTLPLPPDYKVKKITVVSPKKVSKELLSAGG [r13_119_JUSTAS] | 5.12 ± 0.0544 kJ/mol | 8.57 ± 0.247 kJ/mol | 7.45 ± 0.247 kJ/mol
SAGGMTYVLPNGERLLVRVSVRTEPRLDPDRPELVLEPRVEIELFAVSPDLTLRPVPEELARELFEKESAGG [r13_809_TrMRF] | 3.73 ± 0.0795 kJ/mol | 5.58 ± 0.293 kJ/mol | 5.04 ± 0.184 kJ/mol
SAGGMVDIYFPDAVIDDSGTKEDILEQLEKVTGKPIPEELREEILKGKTVEEIVELLKKRGFDVRVDSAGGS [r16_601_TrMRF] | 11.7 ± 0.502 kJ/mol | 14.2 ± 0.247 kJ/mol | 13.1 ± 0.502 kJ/mol
SAGGMVEIELEVDGKKIKITYDKETGKITIEIDGKKIEVELPEEDKGKSKEELLKKALEKAKEELKKSAGGS [r16_215_TrROS_Hall] | 10.3 ± 0.962 kJ/mol | 10.3 ± 0.46 kJ/mol | 10.4 ± 0.46 kJ/mol
SAGGMVEVKPFEIKPPGSSITVTLTDPQGNVIGSTTVSVPTGRLELTITVEPDKTVKVTLTELPPSEVSAGG [r13_935_JUSTAS] | 5.94 ± 0.36 kJ/mol | -1.1 ± 1.42 kJ/mol | 4.23 ± 0.544 kJ/mol
SAGGMVIVIKTPGGASELEIGDLTITTNPDTGLRVAEATPEQIEELLKADALKDIEEIEVLPIEELLSAGGS [r8_493_TrMRF] | 1.7 ± 0.197 kJ/mol | -0.222 ± 0.159 kJ/mol | 1.02 ± 0.46 kJ/mol
SAGGMVKIVRVTFEDGRELVLTEPEKIEEFLKKALGPNFVIKEVREGYVPHPDGPPIPTFELVVERPSAGGS [r16_408_TrMRF] | 8.82 ± 0.222 kJ/mol | 11.09 ± 0.0879 kJ/mol | 10.2 ± 0.176 kJ/mol

Sequence | folding stability dG unfold [1] | folding stability dG unfold [2] | folding stability dG unfold [3]
SAGGMVKVLKVETYPGTGEVIVTMELPGNTVATVRIPRAPDAPLTVSPDGVVTVPTAPVTELETTAPSAGGS [r16_515_JUSTAS] | -1.16 ± 0.222 kJ/mol | 2.47 ± 0.226 kJ/mol | 1.35 ± 0.205 kJ/mol
SAGGMVLVEPSPDAVVRVIEREGDLARVTVYDPRSGARTVELVPIAPTGKGGVRLETLEVRVLPDAEASAGG [r13_556_JUSTAS] | -0.567 ± 0.146 kJ/mol | -0.399 ± 0.201 kJ/mol | -0.391 ± 0.238 kJ/mol
SAGGMVLVSTPSNRGASSEILKEAAEAISAGDPDKAAELAREYFQKNFPPDEPIKIEIFVDPPVEPESAGGS [r8_48_TrMRF] | 1.99 ± 0.046 kJ/mol | 3.11 ± 0.264 kJ/mol | 2.77 ± 0.184 kJ/mol
SAGGMVTTESTKPYLLPNGTKATLTTTTTLYPDGTVVSPTTFTLTFPDGSSTTTTTTTVTTLASGALSAGGS [r16_505_JUSTAS] | 3.5 ± 0.201 kJ/mol | 2.35 ± 0.372 kJ/mol | 3.04 ± 0.272 kJ/mol
SAGGMVTVSTPLGLGYSEEIKARMEEYVKAGDPEAAKELAQEYIDAKYPPKWPVEISFHENPAISKKSAGGS [r8_48_JUSTAS] | -3.22 ± 1.59 kJ/mol | -0.874 ± 0.753 kJ/mol | -1.66 ± 1.51 kJ/mol
SAGGMYMVQIEVRSPDKEIPFMIMVPEDDPKKIVDDIKEEIAEEAGADNVNIKIEVYRMDENGEWEWISAGG [r13_877_TrROS] | 3.62 ± 0.368 kJ/mol | 4.23 ± 0.544 kJ/mol | 4.26 ± 0.46 kJ/mol
SAGGMYVLPIDLDPASLTEEERLAVARELAEELYAAGVPGDVMLIIPREEKPLTITIDFATGEVTVVDSAGG [r19_204_JUSTAS] | 5.53 ± 0.188 kJ/mol | 5.12 ± 0.23 kJ/mol | 5.48 ± 0.201 kJ/mol
SAGGNFVVPFKDPEQVKEIREAAEKGEEIEITPPDGKKFTFKVESVEVDPESGRVVIKLPSGKEFPLSAGGS [r16_254_TrMRF] | 1.15 ± 0.238 kJ/mol | 2.6 ± 1 kJ/mol | 2.58 ± 0.669 kJ/mol
SAGGNIKIKLKGKIYDLNSNKYYDVEIEYDPKTGKAIITTPKGLKFEINPKEKKAEIPSKNYALEIGSAGGS [r16_743_TrMRF] | 5.05 ± 0.402 kJ/mol | 5.72 ± 0.711 kJ/mol | 5.01 ± 0.669 kJ/mol
SAGGNIKIQVENHEDGWYMKIWVPGNGKEQEYPFEPGDTIDTLPPGAEPVKIEWFHMNDNPQEFELDSAGGS [r8_487_TrROS] | 1.23 ± 0.46 kJ/mol | 1.88 ± 0.962 kJ/mol | 1.76 ± 0.753 kJ/mol
SAGGNINDIAKKLGLPPGGMIMIKDFSLEWHRMPMRVPEEDNDKPKEEKEVPMPMYKAEIKISLFPADSAGG [r13_482_TrROS] | 4 ± 0.234 kJ/mol | 8.38 ± 0.544 kJ/mol | 6.38 ± 0.92 kJ/mol
SAGGNIQIHYNPDWGVIRITYMFPSPTEAEDFIKKLLPPGYKIEPIEVERNPDGYYQVSIEIRLPKGASAGG [r13_338_TrROS] | 11.8 ± 0.502 kJ/mol | 16.42 ± 0.151 kJ/mol | 15.2 ± 0.264 kJ/mol
SAGGNNAWVQITIPITIKPVYEPEYDPDNGKPKWEPREMEIPITIWAPFDDPEDAERAADDILKSLGISAGG [r13_35_TrROS] | 3.5 ± 0.155 kJ/mol | 3.22 ± 0.502 kJ/mol | 3.16 ± 0.418 kJ/mol
SAGGNNIMIWIRKNPKEGKRKIMIYTDSPSWVEMIAEEAKDPGFKIVGPMTVEEAAQKMGFPPDLFISAGGS [r16_438_TrROS] | 4.54 ± 0.586 kJ/mol | 5.42 ± 0.628 kJ/mol | 5.31 ± 0.837 kJ/mol
SAGGNPDGKPDGGVSFVVNVAKTKPYIDPSTGKVYPVVEVKPVVIEVKKDEKLDLSELLKNTDYISVSSAGG [r13_753_TrMRF] | -1.94 ± 0.586 kJ/mol | 0.594 ± 0.544 kJ/mol | 0.16 ± 0.502 kJ/mol
SAGGNPRPIELYFPEGKIEKIQEKLREEDGYDVDIQMEQNPDGWFKINITFQDPQRVMDILEKFGITSAGGS [r16_172_TrROS] | 4.98 ± 0.243 kJ/mol | 5.72 ± 0.13 kJ/mol | 5.28 ± 0.372 kJ/mol
SAGGPDNIRIDLKIEPTGDSVKITFPIYNPNGSPIKVEMEYQRVGGKKFFRMKIEFGGRPIELWIPISAGGS [r16_476_TrROS] | 14.2 ± 0.544 kJ/mol | 20.6 ± 0.393 kJ/mol | 19.7 ± 0.92 kJ/mol
SAGGPEELAERIAEFARENGYEVDVLSVEELPGDFVRIHMRIRGLSEDEPVFERDAVLVFPPLPGERSAGGS [r8_102_TrMRF] | 6.05 ± 0.105 kJ/mol | 14.39 ± 0.0837 kJ/mol | 12.5 ± 0.218 kJ/mol
